# Measurements reported in article doi:10.1101/2023.04.13.536802 (bioRxiv, 2023).
# Where no end group is shown, it is not given here.
# Molecular target: recombinant transferrin receptor 1 (TfR1) ectodomain (residues C89-F763) (UniProt Q62351 89-763)
# Experiment: BLI
# Chain of recombinant transferrin receptor 1 (TfR1) ectodomain (residues C89-F763) (Q62351 89-763): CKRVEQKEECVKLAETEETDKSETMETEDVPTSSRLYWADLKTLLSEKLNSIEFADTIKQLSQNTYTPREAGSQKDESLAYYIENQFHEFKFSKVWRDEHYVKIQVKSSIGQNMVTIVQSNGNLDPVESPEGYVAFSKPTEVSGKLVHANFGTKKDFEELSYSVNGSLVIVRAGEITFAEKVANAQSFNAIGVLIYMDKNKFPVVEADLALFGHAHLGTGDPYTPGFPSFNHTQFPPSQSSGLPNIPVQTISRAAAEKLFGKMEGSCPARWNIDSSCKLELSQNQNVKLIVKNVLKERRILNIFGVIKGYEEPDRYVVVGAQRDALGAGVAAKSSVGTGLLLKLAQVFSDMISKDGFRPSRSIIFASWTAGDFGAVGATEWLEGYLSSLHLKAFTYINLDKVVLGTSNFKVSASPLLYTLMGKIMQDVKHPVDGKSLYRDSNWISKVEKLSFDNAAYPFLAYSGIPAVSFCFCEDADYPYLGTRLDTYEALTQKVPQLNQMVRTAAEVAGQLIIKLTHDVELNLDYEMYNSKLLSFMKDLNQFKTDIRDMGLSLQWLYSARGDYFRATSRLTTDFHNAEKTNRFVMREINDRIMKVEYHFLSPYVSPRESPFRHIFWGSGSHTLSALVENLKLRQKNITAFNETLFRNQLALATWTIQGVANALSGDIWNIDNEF
binder,measurement,value
"THRPPMWSPVWP (also: biotin, position not given here) [T12, 12-mer peptide that binds transferrin receptor 1]",Kd,26 nM
